Columns and labels:
Test in all cases: cell-based or functional assay
[1] = target: human FcγRIIa, H variant (human) (UniProt P12318)
[2] = target: human FcγRIIa, R variant (human) (UniProt P12318)
human FcγRIIb (human) = human FcγRIIb (human) (UniProt P31994)
mouse FcγRIII (mouse) = mouse FcγRIII (mouse) (UniProt P08508)
mouse FcγRIV (mouse) = target: mouse FcγRIV (mouse)
Sequence of mouse FcγRIV (mouse) (A0A0B4J1G0 21-203): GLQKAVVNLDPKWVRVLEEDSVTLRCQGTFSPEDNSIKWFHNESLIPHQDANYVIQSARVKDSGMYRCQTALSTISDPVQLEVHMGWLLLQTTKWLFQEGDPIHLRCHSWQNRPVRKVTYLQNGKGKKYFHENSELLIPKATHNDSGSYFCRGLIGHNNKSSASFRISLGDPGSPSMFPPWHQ

Sequence of human FcγRIIa, H variant (human) (P12318 34-317, change not shown): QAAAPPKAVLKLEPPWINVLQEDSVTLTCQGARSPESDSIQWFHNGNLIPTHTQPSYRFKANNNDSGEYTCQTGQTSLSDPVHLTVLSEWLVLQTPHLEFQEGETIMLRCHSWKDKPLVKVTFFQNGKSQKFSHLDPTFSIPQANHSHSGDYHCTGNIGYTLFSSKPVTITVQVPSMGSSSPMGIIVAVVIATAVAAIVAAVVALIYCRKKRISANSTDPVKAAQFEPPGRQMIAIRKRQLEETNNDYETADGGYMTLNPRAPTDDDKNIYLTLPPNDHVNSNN
Sequence of human FcγRIIa, R variant (human) (P12318 other isoform, or with tags, fused parts or gaps mutant limits assumed): as the sequence (P12318 34-317, change not shown) above, with H134R counted along it
Sequence of human FcγRIIb (human) (P31994 43-310): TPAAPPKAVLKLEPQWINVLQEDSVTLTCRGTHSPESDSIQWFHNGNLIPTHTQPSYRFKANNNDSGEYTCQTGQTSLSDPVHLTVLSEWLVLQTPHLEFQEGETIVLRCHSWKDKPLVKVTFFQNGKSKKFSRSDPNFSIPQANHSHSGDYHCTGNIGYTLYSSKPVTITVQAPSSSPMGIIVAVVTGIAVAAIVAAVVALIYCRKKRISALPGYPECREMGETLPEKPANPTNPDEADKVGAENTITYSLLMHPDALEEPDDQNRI
Sequence of mouse FcγRIII (mouse) (P08508 31-261): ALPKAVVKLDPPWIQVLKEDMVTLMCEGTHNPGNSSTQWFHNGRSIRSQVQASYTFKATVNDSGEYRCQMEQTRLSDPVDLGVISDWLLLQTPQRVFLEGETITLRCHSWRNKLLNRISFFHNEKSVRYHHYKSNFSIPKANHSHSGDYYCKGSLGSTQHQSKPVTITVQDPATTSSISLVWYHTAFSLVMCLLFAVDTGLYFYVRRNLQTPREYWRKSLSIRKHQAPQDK

- EC50 [1]: 0.05 µg/mL
- Maximum luminescence (RLU) [1]: 973 RLU
- EC50 [2]: 0.21 µg/mL
- Maximum luminescence (RLU) [2]: 2640 RLU
- EC50 (human FcγRIIb (human)): 0.17 µg/mL
- Maximum luminescence (RLU) (human FcγRIIb (human)): 5800 RLU
- Maximum luminescence (RLU) (mouse FcγRIII (mouse)): 17500 RLU
- EC50 (mouse FcγRIV (mouse)): 2.21 µg/mL
- Maximum luminescence (RLU) (mouse FcγRIV (mouse)): 990 RLU
Substance: Ipilimumab (antibody)
